Laboratory results taken from patent publication US20230399376A1 (BAKER HEART AND DIABETES INSTITUTE, published 2023).

How the values were obtained:
[1] = target: GPIIb/IIIa on non-activated (resting) human platelets (human, UniProt P08514 32-1039; P05106 27-788); assay: flow cytometry on human platelets, anti-Penta-His Alexa Fluor 488 detection
Protocol: (§1) Binding of scFv-CD39 to activated human platelets was evaluated by flow cytometry: 0.1 mg/mL of scFv-CD39, 0.2 mg/mL of scFvₘᵤₜ-CD39 (both activity matched), and 0.038 mg/mL of anti-CD41 scFv (equimolar amount of the scFv in scFv-CD39) were tested.
(§2) Citrated blood from volunteers was centrifuged at 180 g for 10 minutes. The platelet-rich plasma (PRP) was collected and stored at 37° C. The remainder (infranatant) was centrifuged at 2500 g for 10 minutes, and its supernatant was collected as platelet-poor plasma (PPP).
(§3) PRP was diluted 1:20 in phosphate-buffered saline (PBS; 100 mg/L calcium chloride, 100 mg/L magnesium chloride). To investigate the binding of scFv-CD39 constructs, the diluted PRP ([…]) was either preincubated with a final concentration of […] ADP or […] of PBS for 15 minutes before addition of the constructs. The binding was then determined via a Penta-His Alexa Fluor-488-conjugated monoclonal antibody (Qiagen). To investigate the ecto-nucleoside triphosphate diphosphohydrolase efficiency, PRP was preincubated with scFv-CD39 constructs before administration of […] ADP. Platelet activation status was measured by a phycoerythrin (PE)-labeled anti-P-selectin antibody (BD Bioscience). Samples were fixed using […] Cellfix (BD Bioscience) and analyzed on a FACS Calibur (BD Bioscience).

[2] = target: T1, activated glycoprotein GPIIb/IIIa on ADP-activated human platelets (human, UniProt P08514 32-1039; P05106 27-788); assay: flow cytometry on ADP-activated human platelets, anti-Penta-His Alexa Fluor 488 detection
T1 construct: also called integrin alphaIIbbeta3
T1 sequence (P08514 32-1039 limits assumed, chain 1 of 2): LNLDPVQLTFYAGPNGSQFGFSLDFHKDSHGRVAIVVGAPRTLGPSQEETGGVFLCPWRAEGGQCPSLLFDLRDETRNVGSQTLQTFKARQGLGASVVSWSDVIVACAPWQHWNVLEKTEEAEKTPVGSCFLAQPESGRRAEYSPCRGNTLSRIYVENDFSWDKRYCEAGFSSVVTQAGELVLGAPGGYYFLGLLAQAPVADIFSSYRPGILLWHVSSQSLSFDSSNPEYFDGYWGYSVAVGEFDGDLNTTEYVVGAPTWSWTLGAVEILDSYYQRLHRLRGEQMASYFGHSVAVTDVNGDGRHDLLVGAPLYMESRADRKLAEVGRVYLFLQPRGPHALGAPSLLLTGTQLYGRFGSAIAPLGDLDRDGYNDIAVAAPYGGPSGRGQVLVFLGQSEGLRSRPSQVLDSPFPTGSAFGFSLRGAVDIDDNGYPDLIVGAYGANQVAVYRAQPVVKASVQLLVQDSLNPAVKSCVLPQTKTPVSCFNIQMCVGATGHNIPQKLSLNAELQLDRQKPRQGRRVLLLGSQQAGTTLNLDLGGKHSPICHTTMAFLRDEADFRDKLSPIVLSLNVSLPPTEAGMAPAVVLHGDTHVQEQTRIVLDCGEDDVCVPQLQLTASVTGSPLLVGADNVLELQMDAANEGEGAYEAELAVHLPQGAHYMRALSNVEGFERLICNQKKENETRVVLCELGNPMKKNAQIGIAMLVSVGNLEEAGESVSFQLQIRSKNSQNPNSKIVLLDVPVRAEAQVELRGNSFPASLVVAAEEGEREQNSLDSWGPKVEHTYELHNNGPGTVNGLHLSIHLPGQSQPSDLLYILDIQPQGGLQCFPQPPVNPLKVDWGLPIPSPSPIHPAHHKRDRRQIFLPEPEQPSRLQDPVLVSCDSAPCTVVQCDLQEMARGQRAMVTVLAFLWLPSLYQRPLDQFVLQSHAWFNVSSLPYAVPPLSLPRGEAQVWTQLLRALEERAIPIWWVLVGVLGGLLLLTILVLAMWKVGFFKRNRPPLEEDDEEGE
T1 sequence (P05106 27-788 limits assumed, chain 2 of 2): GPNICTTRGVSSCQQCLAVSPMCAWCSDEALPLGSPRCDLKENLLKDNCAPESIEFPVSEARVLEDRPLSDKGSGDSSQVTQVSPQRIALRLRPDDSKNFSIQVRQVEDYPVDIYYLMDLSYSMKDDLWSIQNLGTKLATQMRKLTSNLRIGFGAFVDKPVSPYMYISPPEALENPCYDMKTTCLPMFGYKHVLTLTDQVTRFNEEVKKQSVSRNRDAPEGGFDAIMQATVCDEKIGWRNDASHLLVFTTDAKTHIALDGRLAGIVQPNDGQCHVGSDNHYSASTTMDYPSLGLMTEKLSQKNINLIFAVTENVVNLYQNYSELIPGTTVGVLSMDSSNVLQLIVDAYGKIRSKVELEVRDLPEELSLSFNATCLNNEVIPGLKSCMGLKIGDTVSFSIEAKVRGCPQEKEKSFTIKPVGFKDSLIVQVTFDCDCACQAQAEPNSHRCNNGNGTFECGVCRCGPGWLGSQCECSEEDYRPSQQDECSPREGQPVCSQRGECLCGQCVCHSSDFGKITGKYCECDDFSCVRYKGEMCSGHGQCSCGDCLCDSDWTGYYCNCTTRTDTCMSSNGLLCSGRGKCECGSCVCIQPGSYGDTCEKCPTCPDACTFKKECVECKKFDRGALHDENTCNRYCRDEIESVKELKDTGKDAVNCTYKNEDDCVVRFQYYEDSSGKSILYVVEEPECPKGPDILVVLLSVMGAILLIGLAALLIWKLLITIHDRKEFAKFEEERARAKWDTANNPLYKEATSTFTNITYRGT
Protocol: as §1, §2, §3

Chain of GPIIb/IIIa on non-activated (resting) human platelets (P08514 32-1039 limits assumed, chain 1 of 2): as the sequence (P08514 32-1039 limits assumed, chain 1 of 2) above
Chain of GPIIb/IIIa on non-activated (resting) human platelets (P05106 27-788 limits assumed, chain 2 of 2): as the sequence (P05106 27-788 limits assumed, chain 2 of 2) above

binding result [1]: no binding (tested: 0.2 mg/mL) | binding result [2]: no binding (tested: 0.2 mg/mL)
B1: scFvmut-CD39 (scFv)
chain: HHHHHHHHRRAVRSLVPSSDPLQCGGILAEVQLVQSGAEVNKPGASVKVSCKASGYTFTGYYMHWVRQAPGQGLEWMGWINPNSGGTNYAQKFQGWVTMTRDTSISTAYMELSRLRSDDTAVYYCARGRALYNANDRSPNWFDPWGQGTLVTVSSGSASAPTLKLEEGEFSEARVQAVLTQPPSVSVAPGQTARITCGGNNIGSKSVQWYQQKPGQAPVLVVYDDSDRPSGIPERFSGSNSGNMATLTISRVEAGDEADYYCQVWDSSSDHVVFGGGTKLTVLGGKPIPNPLLGLDSTLPETGGLEEAAATQNKALPENVKYGIVLDAGSSHTSLYIYKWPAEKENDTGVVHQVEECRVKGPGISKFVQKVNEIGIYLTDCMERAREVIPRSQHQETPVYLGATAGMRLLRMESEELADRVLDVVERSLSNYPFDFQGARIITGQEEGAYGWITINYLLGKFSQKTRWFSIVPYETNNQETFGALDLGGASTQVTFVPQNQTIESPDNALQFRLYGKDYNVYTHSFLCYGKDQALWQKLAKDIQVASNEILRDPCFHPGYKKVVNVSDLYKTPCTKRFEMTLPFQQFEIQGIGNYQQCHQSILELFNTSYCPYSQCAFNGIFLPPLQGDFGAFSAFYFVMKFLNLTSEKVSQEKVTEMMKKFCAQPWEEIKTSYAGVKEKYLSEYCFSGTYILSLLLQGYHFTADSWEHIHFIGKIQGSDAGWTLGYMLNLTNMIPAEQPLSTPLSHSTTRGGPEQKLISEEDLNSAVDHHHHHH
notes: Non-targeting control construct; also called non-targ-CD39; Non-targCD39; not shown: 6xHis-tag used for detection
